US20110143428A1 (Genentech, published 2011)

Target: T1, hVEGF-C (human, UniProt P49767)
T1 construct: unlabelled; also called human VEGF-C
T1 sequence (VEGF-C, looked up): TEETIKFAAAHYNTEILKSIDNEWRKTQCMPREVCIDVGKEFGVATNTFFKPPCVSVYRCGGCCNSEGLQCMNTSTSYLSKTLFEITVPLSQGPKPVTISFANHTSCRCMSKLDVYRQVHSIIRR
Test: phage competition ELISA: phage-displayed clone incubated with increasing soluble hVEGF-C, unbound phage captured on hVEGF-C coated plate, anti-M13-HRP, OD450

B1: VC1.1 (antibody, V domains shown)
VH: EVQLVESGGGLVQPGGSLRLSCAASGFTFSDSDIHWVRQAPGKGLEWVAWISPYSGYTDYADSVKGRFTISADTSKNTAYLQMNSLRAEDTAVYYCARLFKVIFDYWGQGTLVTVSS
VL: DIQMTQSPSSLSASVGDRVTITCRASQDVSTAVAWYQQKPGKAPKLLIYSASFLYSGVPSRFSGSGSGTDFTLTISSLQPEDFATYYCQQSYTTPPTFGQGTKVEIK
notes: also called clone VC1.1
IC50: 41.5 nM
